Reference: article PMC9590162
Values joined by “and” are separate entries in the source; they are usually repeats but may differ in a detail not shown here. Equal values may be shown once.

Target: human nesfatin-1 (human) (UniProt P80303)
Assay: AUC; SV-AUC, 20 °C, 50 000 rpm, buffer B with 300 or 500 μM ZnCl2; hN1 at 0.7, 1.0, 1.3 mg/ml; monomer to dimer

human nesfatin-1 (from UniProt P80303 25-106) (peptide)
percent of the two main sedimenting species in the larger (dimer) fraction: 58% and 45% and 51% | stoichiometry N: 2
